T1: human Calcitonin Gene Related Peptide alpha (C-terminal amide (-NH2 printed after the last residue F; the filing words it as 'the N-terminal phenylalanine is amidated'); 125I radiolabeled in the receptor binding assay of Example 6)
T1 peptide: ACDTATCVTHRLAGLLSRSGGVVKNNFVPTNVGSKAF


Biological target: T1, human Calcitonin Gene Related Peptide …
Assay: ELISA

Row | Binder | EC50 [pM]
1 | Antibody Ab1 (antibody, V domains shown) VH: QSLEESGGRLVTPGTPLTLTCTVSGLDLSSYYMQWVRQAPGKGLEWIGVIGINDNTYYASWAKGRFTISRASSTTVDLKMTSLTTEDTATYFCARGDIWGPGTLVTVSS VL: QVLTQTASPVSAAVGSTVTINCQASQSVYDNNYLAWYQQKPGQPPKQLIYSTSTLASGVSSRFKGSGSGTQFTLTISDLECADAATYYCLGSYDCSSGDCFVFGGGTEVVVKR | 103
2 | Antibody Ab3 (antibody) heavy: not shown light: QVLTQSPSSLSASVGDRVTINCQASQSVYDNNYLAWYQQKPGKVPKQLIYSTSTLASGVPSRFSGSGSGTDFTLTISSLQPEDVATYYCLGSYDCSSGDCFVFGGGTKVEIKRTVAAPSVFIFPPSDEQLKSGTASVVCLLNNFYPREAKVQWKVDNALQSGNSQESVTEQDSKDSTYSLSSTLTLSKADYEKHKVYACEVTHQGLSSPVTKSFNRGEC | 154

The next binders have a lower EC50 than those just listed; values first:

Row | EC50 [pM] | Binder
3 | 88 | Antibody Ab4 (antibody, V domains shown) VH: QSLEESGGRLVTPGTPLTLTCSVSGIDLSGYYMNWVRQAPGKGLEWIGVIGINGATYYASWAKGRFTISKTSSTTVDLKMTSLTTEDTATYFCARGDIWGPGTLVTVSS VL: QVLTQTPSPVSAAVGSTVTINCQASQSVYHNTYLAWYQQKPGQPPKQLIYDASTLASGVPSRFSGSGSGTQFTLTISGVQCNDAAAYYCLGSYDCTNGDCFVFGGGTEVVVKR
4 | 83 | Antibody Ab2 (antibody) heavy: not shown light: QVLTQSPSSLSASVGDRVTINCQASQSVYDNNYLAWYQQKPGKVPKQLIYSTSTLASGVPSRFSGSGSGTDFTLTISSLQPEDVATYYCLGSYDCSSGDCFVFGGGTKVEIKRTVAAPSVFIFPPSDEQLKSGTASVVCLLNNFYPREAKVQWKVDNALQSGNSQESVTEQDSKDSTYSLSSTLTLSKADYEKHKVYACEVTHQGLSSPVTKSFNRGEC

From patent US20120294802A1 (published 2012)
